From patent publication US20070173444A1 (AFFYMAX, published 2007)
Bridge positions count the residues as written; N and C are the ends. Ends that are not written are not given here.

T1: native IL-5R a/β complex on TF-1 cells (human, UniProt Q01344 21-420; P32927 17-897)
T1 sequence (looked up) 1: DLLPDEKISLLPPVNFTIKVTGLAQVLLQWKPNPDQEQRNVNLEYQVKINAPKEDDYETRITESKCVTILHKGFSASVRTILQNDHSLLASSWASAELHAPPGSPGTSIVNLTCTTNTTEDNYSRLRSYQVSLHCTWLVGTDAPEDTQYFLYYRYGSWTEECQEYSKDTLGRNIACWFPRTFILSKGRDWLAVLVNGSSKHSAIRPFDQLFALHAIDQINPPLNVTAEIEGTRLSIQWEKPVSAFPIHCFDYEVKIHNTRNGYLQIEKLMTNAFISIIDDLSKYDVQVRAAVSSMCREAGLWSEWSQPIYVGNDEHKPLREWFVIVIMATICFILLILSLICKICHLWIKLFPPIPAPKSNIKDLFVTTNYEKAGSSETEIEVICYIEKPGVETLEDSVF
T1 sequence (looked up) 2: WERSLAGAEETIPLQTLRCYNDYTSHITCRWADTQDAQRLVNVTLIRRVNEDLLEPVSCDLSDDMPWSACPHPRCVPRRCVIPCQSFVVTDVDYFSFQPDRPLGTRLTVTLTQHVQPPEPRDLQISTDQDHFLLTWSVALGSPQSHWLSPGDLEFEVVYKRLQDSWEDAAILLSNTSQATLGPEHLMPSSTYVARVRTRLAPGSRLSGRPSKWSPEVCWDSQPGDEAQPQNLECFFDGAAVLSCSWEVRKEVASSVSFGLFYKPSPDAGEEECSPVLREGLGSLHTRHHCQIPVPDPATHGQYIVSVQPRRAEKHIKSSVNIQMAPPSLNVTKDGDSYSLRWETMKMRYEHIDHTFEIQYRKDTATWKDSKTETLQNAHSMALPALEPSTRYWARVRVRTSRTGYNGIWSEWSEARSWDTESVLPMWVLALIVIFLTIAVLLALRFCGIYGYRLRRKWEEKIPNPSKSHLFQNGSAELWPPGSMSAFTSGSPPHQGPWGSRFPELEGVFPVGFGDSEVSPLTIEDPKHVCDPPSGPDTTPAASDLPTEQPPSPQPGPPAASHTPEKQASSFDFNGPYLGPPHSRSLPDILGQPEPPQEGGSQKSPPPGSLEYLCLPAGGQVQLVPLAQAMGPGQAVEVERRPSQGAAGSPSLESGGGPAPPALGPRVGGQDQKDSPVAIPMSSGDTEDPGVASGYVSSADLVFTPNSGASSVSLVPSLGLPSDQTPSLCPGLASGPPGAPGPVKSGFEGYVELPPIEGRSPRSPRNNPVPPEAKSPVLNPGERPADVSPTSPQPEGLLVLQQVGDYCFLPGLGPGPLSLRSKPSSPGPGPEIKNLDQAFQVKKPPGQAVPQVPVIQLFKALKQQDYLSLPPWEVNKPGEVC

T2: IL-5RaECD (the extracellular domain (ECD) of the human IL-5 receptor a chain) (human, UniProt Q01344 21-342, extensively glycosylated)
T2 construct: extracellular domain; also called IL-5RαECD; soluble IL-5Ra
T2 sequence (Q01344 21-342, looked up): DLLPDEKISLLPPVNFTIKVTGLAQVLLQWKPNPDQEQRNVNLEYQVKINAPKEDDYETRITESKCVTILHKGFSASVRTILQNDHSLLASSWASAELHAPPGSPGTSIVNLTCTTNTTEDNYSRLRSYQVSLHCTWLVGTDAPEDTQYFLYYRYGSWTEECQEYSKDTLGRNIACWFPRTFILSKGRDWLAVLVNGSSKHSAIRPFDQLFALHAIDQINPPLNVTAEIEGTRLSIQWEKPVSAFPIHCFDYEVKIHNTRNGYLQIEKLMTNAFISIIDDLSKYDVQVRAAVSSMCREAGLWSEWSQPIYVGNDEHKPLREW

B1: AF 18748 (a dimer of residues 32-50 of SEQ ID NO: 8) (peptide)
peptide: H-TGGGDGYVCVEWARCPTCK-OH
modifications: disulfide 15-18; also: homodimer via interchain disulfide Cys9-Cys9
notes: Synthetic dimer made with orthogonal protecting groups
B2: dimer of (H)-GYVCVEWARCPTCR-(OH) (peptide)
peptide: H-GYVCVEWARCPTCR-OH
modifications: disulfide (positions not given here); also: dimer, intramolecular and intermolecular disulfide linkages, places not given here
B3: dimer of (H)-EGYVCVEWARCPTCR-(NH2) (peptide)
peptide: H-EGYVCVEWARCPTCR-NH2
modifications: disulfide (positions not given here); also: dimer, intramolecular and intermolecular disulfide linkages, places not given here
B4: dimeric form of AF17362 (peptide)
peptide: TGGGDGYVCVEWARCPTCK
modifications: disulfide 15-18; also: dimer, interchain disulfide between Cys9 of each chain
notes: Formed by air oxidation in 50 mM Tris pH 7.8; said to be indistinguishable from AF18748; also called AF17362 after 10 days at room temperature; spontaneously formed disulfide-linked dimer

What was measured:
[1] = target: T1, native IL-5R a/β complex on TF-1 cells; test: cell-based or functional assay
[2] = target: chimeric IL-5Ra/EGFR receptor (human, UniProt Q01344 21-342); test: cell-based or functional assay
[3] = target: T2, IL-5RaECD (the extracellular domain …); test: competition with [125I] IL-5 for binding to IL-5Ra ECD
Method: (§1) Binding affinities of synthetic peptides for IL-5Ra were measured in a competition binding assay using radio-iodinated IL-5. Immulon 4 (Dynatech) microtiter wells were coated with streptavidin (Sigma) by incubating 100 ul of a 50 ug/ml solution in PBS for 30 min. at 37. The wells were blocked with 200 ul of 1% BSA in PBS for 15 min. at 37, followed by 100 III of biotinylated monoclonal antibody, designated mAb 179, at 5 u. g/ml in PBS. Soluble IL-5Ra was then immobilized in the wells by incubating 100 µl of a solution of soluble receptor harvest diluted 1: 5000 in PBS/0.1% BSA for 1 hr. at 4. After washing away unbound receptor, 50 ul of various concentrations of test peptide diluted in PBS/0.1% BSA were added to the wells, followed by 50 µl of a fixed concentration of [₁₂₅I] IL-5 (Amersham). The binding reactions were incubated at 4 C for 2 hr, then washed with PBS to remove unbound [₁₂₅I] IL-5. Bound [₁₂₅I] IL-5 was determined by gamma counting.
(§2) Total binding was defined by the amount of [₁₂₅I] IL-5 bound in the absence of any competitor. Non-specific binding was defined by the amount of [₁₂₅I] IL-5 bound in the presence of 30 nM IL-5. Peptide binding data was analyzed to determine the peptide concentration required to reduce specific [₁₂₅I]

[4] = target: T1, native IL-5R a/β complex on TF-1 cells; test: cell-based or functional assay; remark: listed apart in the source
[5] = target: T2, IL-5RaECD (the extracellular domain …); test: scintillation proximity competition assay, 20 pM [125I] IL-5, soluble IL-5Ra on beads; dimer of the printed monomer
Method: Binding affinities of synthetic peptides for IL-5Ra were measured in a scintillation proximity assay (SPA) using radio-iodinated IL-5. Streptavidin coated SPA beads (Amersham) were suspended in IL-5 binding buffer (phosphate buffered saline, 0.1% bovine serum albumin, 0.2% NaN3) at 2 mg beads/ml of buffer. Biotinylated mAb 179 was adsorbed onto the beads at a ratio of 2 ig Ab/mg beads by incubating the beads and antibody with agitation for at least 2 h. at 4. The beads were pelleted at 2500 rpm and resuspended at 2 mg/ml in binding buffer. Soluble IL-5Ra was then adsorbed onto the beads by diluting a solution of soluble receptor harvest 1:500 into the bead suspension and incubating with agitation for 2 hr at 4. The beads were again pelleted at 2500 rpm and resuspended at 2 mg/ml in binding buffer. Competition binding assays were carried out in 100p1 reactions in white polystyrene microtiter plates. These reactions contained 0.05 mg of receptor coated SPA beads, various concentrations of test peptide diluted in binding buffer, and 20 pM [₁₂₅I] IL-5 (Amersham). The plates were incubated at room temperature for 1 hour with agitation, then centrifuged for 5 min at 1500 rpm followed by scintillation counting on a Topcount instrument (Packard). Total binding was defined by the amount of [₁₂₅I] IL-5 bound in the absence of any competitor. Non-specific binding was defined by the amount of [₁₂₅I] IL-5 bound in the presence of 30 nM IL-5. Peptide binding data was analyzed to determine the peptide concentration required to reduce specific [₁₂₅I] IL-5 binding by 50% (IC₅₀). In each instance, the dimer has both intramolecular and intermolecular disulfide linkages as shown generically below: […]

[6] = target: T1, native IL-5R a/β complex on TF-1 cells; test: competition with [125I] IL-5 binding to TF-1 cells; AF 18748 as competitor
[7] = target: T2, IL-5RaECD (the extracellular domain …); test: competition with [125I] IL-5 for binding to IL-5Ra ECD; peptide after 10 days (disulfide-linked dimer)
Method: as §1, §2

[8] = target: T2, IL-5RaECD (the extracellular domain …); test: competition with [125I] IL-5 for binding to IL-5Ra ECD; peptide assayed immediately after dissolving
Method: as §1, §2

Row | Binder | Microphysiometer pIC50 (block of TF-1 cell response to IL-5) [1] | SPA pIC50 [5] | other results
1 | B1 | 9.6 negative log of the molar IC50 | 9.1 negative log of the molar IC50 | EC50 (read off the curve), luciferase reporter activity of IL-5Ra/EGFR Ba/F3 cells [2]: ~0.03 nM; IC50 [3]: 0.78 nM; inhibition of IL-5 induced human eosinophil adhesion to immobilized IgG, IC50 [4]: 0.348 nM; IC50 [6]: 0.4 nM
2 | B2 | 8.4 negative log of the molar IC50 | 8.2 negative log of the molar IC50 | 
3 | B3 | 9.1 negative log of the molar IC50 | 8.1 negative log of the molar IC50 | 
4 | B4 |  |  | IC50 [7]: 0.55 nM
5 | TGGGDGYVCVEWARCPTCK (three Cys in free sulfhydryl form, T0005 prints 32-50) [AF17362 (three cysteine residues in the free sulfhydryl form)] |  |  | IC50 [8]: 120 nM
